Test results taken from patent US20080171059.

How the values were obtained:
[1] = biological target: Aga2p-N9V fusion surface-displayed on yeast, unmodified (G4S)3 linker (construct pCT-N9V, as in strain EBYN9V)
[2] = biological target: New York Esophageal 1 antigen (NY-ESO-1), P78358
Chain of New York Esophageal 1 antigen (NY-ESO-1), P78358 (P78358 whole entry): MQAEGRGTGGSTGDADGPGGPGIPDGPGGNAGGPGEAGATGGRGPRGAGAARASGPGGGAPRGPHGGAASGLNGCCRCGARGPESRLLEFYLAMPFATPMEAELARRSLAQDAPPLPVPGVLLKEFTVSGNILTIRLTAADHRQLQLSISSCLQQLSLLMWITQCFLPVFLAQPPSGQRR

B1: recombinant human Cathepsin S (protein)
chain: LPDSVDWREKGCVTEVKYQGSCGACWAFSAVGALEAQLKLKTGKLVSLSAQNLVDCSTEKYGNKGCNGGFMTTAFQYIIDNKGIDSDASYPYKAMDQKCQYDSKYRAATCSKYTELPYGREDVLKEAVANKGPVSVGVDARHPSFFLYRSGVYYEPSCTQNVNHGVLVVGYGDLNGKEYWLVKNSWGHNFGEEGYIRMARNKGNHCGIASFPSYPEI
B1 was tested, and the CatS cleavage rank order [1] was 4 rank and the “cleavage by Cathepsin S” value [2] was “the N-terminus of NY-ESO-1 (MQ|AE . . . ) ... are cleaved rapidly by Cathepsin S (at the positions indicated by the vertical bars)”.
